The values below come from paper PMC7156819.

The target of the assay is FOXM1 (Forkhead box M1) (UniProt Q08050). As to the kind of experiment: GST pull-down with purified proteins. To be noted: reference: GST-ZNF148 WT without ERK; sites S306.

Regarding “ZNF148 (ZBP‐89) (from UniProt Q9UQR1) GST-ZNF148 WT pre-incubated with active ERK”, the “binding against the reference” value was “stronger”.
